Test results from patent US20180298083A1 (US Dept. of Health and Human Services, published 2018).
Where two headings read alike, the source gives them in different places.

Assays:
[1] = molecular target: CAAN.A2 (HIV-1); test: cell-based or functional assay
[2] = molecular target: CAAN.A2 (HIV-1); test: cell-based or functional assay; remark: listed apart in the source
[3] = molecular target: CAAN.A2 (HIV-1); test: cell-based or functional assay; remark: listed apart in the source
[4] = molecular target: T1, monomeric gp120^JRCSF (HIV-1 strain JRCSF, UniProt P20871 32-503); test: gp120 capture ELISA
T1 construct: domain: gp120

[5] = molecular target: T2, SSB, Sjogren syndrome antigen B (Homo sapiens (Human), UniProt P05455 1-408); test: Luminex AtheNA Multi-Lyte ANA test
T2 construct: also called SS-B/La
T2 sequence: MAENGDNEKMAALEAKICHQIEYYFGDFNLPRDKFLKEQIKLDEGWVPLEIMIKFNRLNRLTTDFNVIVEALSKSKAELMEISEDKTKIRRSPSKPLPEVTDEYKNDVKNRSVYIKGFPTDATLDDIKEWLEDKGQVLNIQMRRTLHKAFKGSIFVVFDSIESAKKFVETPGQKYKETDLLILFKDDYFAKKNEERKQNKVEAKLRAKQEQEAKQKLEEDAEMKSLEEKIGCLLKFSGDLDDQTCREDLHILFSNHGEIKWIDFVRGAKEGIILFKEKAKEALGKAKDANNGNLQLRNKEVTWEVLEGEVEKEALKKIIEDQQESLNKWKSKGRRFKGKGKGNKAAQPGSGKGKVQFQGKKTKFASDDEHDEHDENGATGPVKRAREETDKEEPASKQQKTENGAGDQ

[6] = molecular target: Histone; test: Luminex AtheNA Multi-Lyte ANA test
[7] = molecular target: T3, SSA, Sjogren's syndrome antigen A; test: Luminex AtheNA Multi-Lyte ANA test
T3 construct: also called SSA/Ro

[8] = molecular target: T2, SSB, Sjogren syndrome antigen B; test: Luminex AtheNA Multi-Lyte ANA test; remark: listed apart in the source
[9] = molecular target: Sm, Smith antigen; test: Luminex AtheNA Multi-Lyte ANA test
[10] = molecular target: RNP, ribonucleoprotein; test: Luminex AtheNA Multi-Lyte ANA test
[11] = molecular target: T4, Jo1 antigen; test: Luminex AtheNA Multi-Lyte ANA test
T4 construct: also called Jol

[12] = molecular target: CentrB, centromere B; test: Luminex AtheNA Multi-Lyte ANA test
CentrB, centromere B, sequence (P07199 2-599): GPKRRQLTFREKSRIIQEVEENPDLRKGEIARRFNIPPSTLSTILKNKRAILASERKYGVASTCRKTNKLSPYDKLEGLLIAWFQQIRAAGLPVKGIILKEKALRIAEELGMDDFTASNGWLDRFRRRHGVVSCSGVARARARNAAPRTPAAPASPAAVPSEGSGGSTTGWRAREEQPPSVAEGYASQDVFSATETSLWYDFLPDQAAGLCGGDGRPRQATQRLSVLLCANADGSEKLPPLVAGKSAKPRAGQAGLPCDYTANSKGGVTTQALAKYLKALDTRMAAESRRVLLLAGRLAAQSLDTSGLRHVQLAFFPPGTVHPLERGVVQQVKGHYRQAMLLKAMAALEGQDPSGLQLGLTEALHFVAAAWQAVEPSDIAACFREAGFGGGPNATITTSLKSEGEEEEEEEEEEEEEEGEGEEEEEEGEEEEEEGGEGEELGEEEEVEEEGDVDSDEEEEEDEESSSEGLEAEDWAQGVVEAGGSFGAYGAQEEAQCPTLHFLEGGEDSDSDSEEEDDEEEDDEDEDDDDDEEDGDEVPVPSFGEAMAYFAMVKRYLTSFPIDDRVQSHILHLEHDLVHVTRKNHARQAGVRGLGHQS

B1: VRC01 (antibody, V domains shown)
VH: QVQLVQSGGQMKKPGESMRISCRASGYEFIDCTLNWIRLAPGKRPEWMGWLKPRGGAVNYARPLQGRVTMTRDVYSDTAFLELRSLTVDDTAVYFCTRGKNCDYNWDFEHWGRGTPVIVSS
VL: EIVLTQSPGTLSLSPGETAIISCRTSQYGSLAWYQQRPGQAPRLVIYSGSTRAAGIPDRFSGSRWGPDYNLTISNLESGDFGVYYCQQYEFFGQGTKVQVDI
[1]
  neutralisation IC50: 1.06 µg/mL
[2]
  neutralisation IC50: 1.06 µg/mL
[3]
  neutralisation IC50: 1.06 µg/mL

B2: VRC-PG04 (antibody, V domains shown)
VH: QVQLVQSGSGVKKPGASVRVSCWTSEDIFERTELIHWVRQAPGQGLEWIGWVKTVTGAVNFGSPDFRQRVSLTRDRDLFTAHMDIRGLTQGDTATYFCARQKFYTGGQGWYFDLWGRGTLIVVSS
VL: EIVLTQSPGTLSLSPGETASLSCTAASYGHMTWYQKKPGQPPKLLIFATSKRASGIPDRFSGSQFGKQYTLTITRMEPEDFARYYCQQLEFFGQGTRLEIR
[4]
  Binding affinity relative to WT (%): 100%

B3: N6 antibody (antibody, V domains shown)
VH: RAHLVQSGTAMKKPGASVRVSCQTSGYTFTAHILFWFRQAPGRGLEWVGWIKPQYGAVNFGGGFRDRVTLTRDVYREIAYMDIRGLKPDDTAVYYCARDRSYGDSSWALDAWGQGTTVVVSA
VL: YIHVTQSPSSLSVSIGDRVTINCQTSQGVGSDLHWYQHKPGRAPKLLIHHTSSVEDGVPSRFSGSGFHTSFNLTISDLQADDIATYYCQVLQFFGRGSRLHIK
notes: also called N6 mAb
[5]
  binding result: no binding (tested: 50 µg/ml)
[6]
  Luminex reactivity (unit not given): 50.6
[7]
  Luminex reactivity (unit not given): 36.4
[8]
  Luminex reactivity (unit not given): 100
[9]
  Luminex reactivity (unit not given): 5.2
[10]
  Luminex reactivity (unit not given): 16.8
[11]
  Luminex reactivity (unit not given): 56.4
[12]
  Luminex reactivity (unit not given): 22
